# Data published in the nanobody polyreactivity screen of Harvey et al. (2022).
# Test: yeast display, Sf9 membrane polyspecificity reagent, FACS + sequencing; frameworks hold sequencing errors
# How it was run: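 Nanobodies from a synthetic yeast display library (Saccharomyces cerevisiae BJ5465), induced 36–48 hours with galactose, were stained 1 hour at 4 °C with 10% biotinylated, detergent-solubilized Sf9 membrane reagent, enriched on streptavidin microbeads, then FACS-sorted. Anti-HA (expression) and streptavidin (reagent binding) fluorescence set low and high (top ~1%) gates. Polyreactivity labels come from the gate of origin. Genes were colony-PCR amplified, MiSeq 2 × 250 sequenced and filtered by CDR length.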
row,Sequence,polyreactivity (PSR sort gate)
1,QLQLEESGGGLVQAGGSLRLSCAAYGSIYYYNGMGWYRQAPAKERELVAAISSSGGRTYYADSVKGRFTISRDNENNTVYLQMNSLKPEDPAVYYCYDSGFGKTGFGYDYWGQGTQVTVSS,low polyreactivity
2,QVQLVESGGGLVQAGGSLRLSCAASGITFPVYAMGWYRQAPGKEREFVASIRFSTGRTYYADSVKARFTISRDYAKNTVYLQMNSLKPEDTAVYYCRGTTQSPYNSWGQGTQVTVSS,high polyreactivity
3,QVQLVESGGGLVQAGGSLRLSCAASGNTFDVYAMGWYRQAPGKEREFVARISGRVGSTYYADSVKGRFTISRDNAKNTVYLQMNSLKPEDTAVYYCAARGRVKYVYGGFGYWGQGTQVTVSS,high polyreactivity
4,QVQLVESGGGLVQAGGSLRLSCAASGIIFSQYAMGWYRQAPGKERELVASISRSGGITYYADSVKGRFTISRDNAKNTVYLQMNSLKPEDTAVYYCNAAKACREQWTSFDYWGQGTQVTVSS,high polyreactivity
5,QVQLVESGGRLVQAGGSLRLSCAASGSIFYYNVMGWYRQAPGKERELVAAIDIDGSTYYADSVKGRFTISRDNAKNTVYLQMNSLKPEDTAVYYCAADVHTPALYTYAAGDYWGQGTQVTVSS,low polyreactivity
6,QVQLVESGGGLVQAGGSLRLSCAASGITFVFYAMGWYRQAPGKEREFVAGITWRGGRTYYADSVKGRFTISRDNAKNTVYLQMNSLKPEDTAVYYCNARSVVLTGGDYWGQGTQVTVSS,high polyreactivity
7,QVQLVDSGGGLVQAGGSLRLSCAASGSTFRYNVMGWYRQAPGKEREMVATISYSGGSTNYADSVKGRFTISRDNAKNTVYLPMNSLKPEDTAVYYCAARYLYPFYRYWWYDYWGQGTQVTVSS,high polyreactivity
8,LVQLVESGGGLVQAGGSLRLSCAASGRIFLKYAMGWYRQSPGKERELVAAISRRGASTYYADSVKGRFTISRDYGKNSVYLLMKSLKPDDTAVYYCNARTSSGMDYWGQGTQVTVSS,high polyreactivity
9,QVQHVESGGGLVQAGGSLRLSCAASGRIFWYYAMGWYRQAPGKERELVAASTRGGITTYADSVKGRYTISRDNAKNTVYLQMNSLKPEDTAVYYCNAVRWYGRMDYWGQGTQVTVSS,low polyreactivity
10,QVQLVESGGGLVQAGGSLRISCAASGFTFYYNAMGWYRQAPGKERELVASISSNGTSTYYADSVKGRFTISRDNAKNTVYLQMNSLKPEDTAVYYCNVDIFDPRTYDYWGQGTQVTVSS,low polyreactivity
11,QVQLVESGGGLVQAGGSLRLSCAASGRTFYDNTMGWYRQAPGKERELVAAISRGGSTYADSVKGRFTISRDNAKNTVYLELNSLKPEDTAVYYSNKRSITTEYGYWGQGTQVTVSS,low polyreactivity
12,QVQLVESGGRLVQAGGSLRLSCAASGRIFWWNAMGWYRQAPGKERQFVAAISYRGGSTYYADSVKGRFTISRDNAKNTVYLQMNSLKPEDTAVYYCAADWTYVGPSYSYYYWGQGTQVTVSS,low polyreactivity
13,QVQLVESGGGLVQAGGSLRLSCAASGFIFPYYALGWYRQAPGKEREFVAAISKTAGRTYYADSVKGRFTISRDNAKNTVYLQMNSLKPEDTAVYYCAVGNKRDAYYQYSSYGYWGQGTQVTVSS,low polyreactivity
14,QVQLVESGGGLVQAGGSLRLSCAASGRTFYYAMGWYRQAPGKERELVASITWSGGITTYADSVKGRFTISRDNAKNTVYLQLNSLKPEDTAVYYCAAQVIKGRTYQLGDYWGQGTQVTVSS,high polyreactivity
15,QVQLEESGGGLVQAGGSLRLSCAASGSTFHLYAMGLYRQAPGKEREFVAAIRGRGGNTYADSVKGRFTISRDNAKNTVYLQMNSLKPEDTAVYYCAAPLLRDLRSQYYYIYWGQCTQVTVSS,low polyreactivity
16,QVQHVESGGCLVQARGSLRLSCASSGRTFDIYARGWYRHPPGKESELVAVISASGGSTYYADSVKGRFTISRDNAKNTVYLQMNSLKPEDTAVYYCAARYWFRFQYDYWGQGTQVTVSS,high polyreactivity
17,QVQLVESGGGLVQAGGSLRLSCAASGSIFSRNAMGWYRQAPGKVRELVAAITGSGSSTYYADSVKGRFTISRDNAKNTVYLQMNSLKPEDTAVYYCAKGSWWGYYSYGFDYWGQGTQVTVSS,high polyreactivity
18,QVQLVESGGGLVQAGGSLRLSCAASGSIFYKNAMGWYRQAPGKERELVAVISWSGGSTSYADSVKGRFTISRDNAKNTVYLQMNSLKPEDTAVYYCAKEYFTDYLYEYDYWGQGTQVTVSS,low polyreactivity
19,QDQLVESGGGLVQAGGSLRLSCAASGFIFRWYAMGWYRQAPGKERELVAAISRSGDSTYYADSVKGRFTISRDNAKNTVYLQMNSLIPEDTAVYYCAADDRYYTYGYDYWGQGTQVTVSS,low polyreactivity
20,QVQLVESGGGLVQAGGSLRLSCAASGRIFHSYVMGWYRQAPGKERELVARISSGGRTNYADSVKGRFTISRDNAKNSVYLQMNSLKPEDTAVYYCAATRLYPRSRYDYWGQGTQVTVSS,high polyreactivity
21,QVQLVESGGGLVQAGGSLRLSCAASGSIFVQYDMGWYRQAPGKERELVAAISWSGGSTYYADSVKGRFTISRDNAKNTVYLQMNTLKPEDTAVYYCAARARLWYFSYGYWGQGTQVTVSS,low polyreactivity
22,QVQLVESGGGLVQAGGSLRLSCAASGSTFRYNAMGWYRQAPGKERELVAVISWGGGRTYYADSVKGRFTISRDNAKNTVYLQMNSLKPEDTAVYYCNVYFGRIVARDYGYWGQGTQVTVSS,high polyreactivity

row,Sequence,polyreactivity (PSR sort gate)
1,QVQLVESGGGLVQAGGSLRLSCAASGFIFVYNDMGWYRQAPGKERELVASISNGDNTNYADSVKGRFTISRDNAKNTVYLQMNSLKPEDTAVYYCAARGTIYVLGVPARPVPDGDYWGQGTQVTVSS,low polyreactivity
2,QVQLVESGGGLVQAGGSLRLSCAASGRIFYWYAMGWYRQAPGKERELVAAISSTGRTKYADSVKGRFTISRDNAKNTVDLQMNSLKPEDTAVYYCAKRRAAVNGRSDYYYWGQGTQVTVSS,high polyreactivity
3,QVQLVESGGGLVQAGGSLRLSCGASGRIFYYYVMGWSRQGPGKERELVAVIDWSGGSTYYADSVKGRFTISRDNAKNTVYLQMNSLKPEDTAVYYCAKVWLKFSLAYEDYVYWGQGTQVTVSS,low polyreactivity
4,QVQLVESGGGLVQAGGSLRLSCAASGGTFHYYAMGWYRQAPGKERELVAAINRSGDSTYYADSVKGRFTISRDNAKNTVYLQMNSLKPEDTAVFYCAVSYYGADGNPFPHDYWGQGTQVTVSS,low polyreactivity
5,QVQLVESGGGLVQAGGSLRLSCAASGSTFGGYVMGWYRQAPGKERELVAAIRRVGRTYYADSVKGRFTISRDNAKNTVYLQMNSLKPEDTAVYYCAKDNWVNYDDSHDSWGQGTQVTVSS,low polyreactivity
6,QVQLVESGGGLVQAGGSLRLSCAASGITFLPYAMGWYRPEPGKERELVAAITRGGGSTYADSVKGRFTISRDNAKNTVYLQMNSLKPEDTAVYYCNAKGRGWTAQYDYWGQGTQVTVSS,low polyreactivity
7,QVQLEESGGGLVQAGGSLRLSCAASGSTIFGNTMGWYRQAPGKERELVATITRRGGSTYYADSVKGRFTISRDNAKNTVYLQMNSLKPEDTAVYYCAKRGPYTKYDYWGQGTQVTVSS,low polyreactivity
8,QVQLEESGGGLVQAGGSLRLSCAASGITFNQYVMGWYRQAPGKEMELVAAISRSGATTYYADSVKGRFTISRDNAKNTVYLQMNSLKPEDTAVYYCAVRGSVSYTRYGYWGQGTQVTVSS,high polyreactivity
9,QVQHVESGGGLVQAGGSLRLSCAASGRIIWWYAMRRYRQPPGKERELVAVIDDSVGITYFADSVKGRFTISRDNAKNTVYLQMNSLKPVDTAVNYCARNVNAQKVLGGFDSWGKGTQVTVSS,low polyreactivity
10,QVQLVESGGGLVQAGGSLRLSCPASGYTFYKNAMGWYRQPPGKERELVAAISYSGGRTYYADSVKGRFTISRDNAKNTVYLQMNSLKPEDTAVYYCAKATRVITDDGSYGYWGQGSQVTVSS,high polyreactivity
11,QVQLVESGGGLVQAGGSLRLSCAASGRTFAGNAMGWYRQAPGKEREMVAAISVSGSTTYYADSVKGRFTISRDNAKNTVYLQMNSLKPEDTAVYYCAARGLTYRSDMYYWGQGTQVTVSS,low polyreactivity
12,QVQLVESGGGLVQAGGSLRLSCSASGSIFYTYAMGWYRQAPGKERELVAAISRSGGITYYADSVKGRFTISRDNAKNTVYLEMNSLKPEDTAVYFCNVASASPGRYDYWGQGTQVTLSS,high polyreactivity
13,QVQLVESGGGLVQAGGSLRLSCAASGFTFDIYGMGWYRQAPGKERELVASITSRSARTYYADSVKGRFTISRYNAKNTVYLQMNSLKPEDTAVYYCAADTTIKRKYLAIRGYWGQGTQVTVSS,high polyreactivity
14,QVQLVESGGGLVQAGGSLRLSCAASGYTFYSNAMGWYRQAPGKETELVASIRSRGRSTYYADSVKGRFTISRDNAKNTVYLQMNSLKPEDTAVYYCAALPNKPAVYAYDYWGQGTQVTVSS,low polyreactivity
15,QVQLVESGGGLVQAGGILRLSAASGSTLAGNTMGWYRQAPGKERELVAAINDSGGSTYYADSVKGRFTISRDNAKNTVYLQMNSLKPEDTAVYYCNADGSAYIEDGYDYWGQGTQVTVSS,low polyreactivity
16,QVQLVESGGGLVQAGGSLRLTCAASGLFYAMGWYRQAPGKQRELVAAISSVGSTNYADSVKGRFTISRDNAKNTVYLQMNSLKPEDTAVYYCAAYFYTYPVDRYGSYYWGQGTQLTVSS,low polyreactivity
17,QVQLVESGGGLVQAGGSLRLSCAASGSISGLYAMGWYRQAPGKESELVAAISFSGGSTYYADSVKGRFTISRDNAKNTVYFQMNSLKPEDTAVYYCAADGQYGGVPNTSEWTFDYWGQGTQVTVSS,low polyreactivity
18,QVHLQESGGGMVQAGGSLRLSCAESGNIFLGDTMGWYRQPPGKEREFVAGIARGGNPYYADSLKGRFTISRNNAKNTVYLQKNSLKPEDTAVHYCAFLRSHASDYIYWGQGTQVTVSS,low polyreactivity
19,QVQLVESGGGLVQAGGSLRLSCAASGSMFGYYAMGWYRQATGKERELVASIRRGSSTNYADSVKGRFTISRDNAKNTVYLQMNSLKPEDTAVYYCNAVLLSYDARGYSNLYDYWGQGPQVTVSS,low polyreactivity
20,QDQLVESRGGLVQAGGSLSISCAASGFTFRYYAMGWYRQAPGKERELVAGISWRGGSTNYADSVKGRFTISRDNAKNTVYFQMNSLNPDDSEVYSCNAVSYSFPILRVRPTWYDYWGQGTQVTVSS,high polyreactivity
21,QDQLVDSGGGLVQAGGSLRLSCAASGFTLAYNTMGWYRQAPGKERELVASITSSGSSTYYADSEKGRFTITRDNGKYNVYLEMNSLKPEDTAVYYFNKVRPRKFWDYYYWGQGTQVTVSS,high polyreactivity
